Experimental data as given in patent US20190225669A1 (ACCELERON PHARMA, published 2019).
Read-outs that look alike come from different tables or passages of the source.

How the values were obtained:
[1] = target: T1, activin A (UniProt P08476 311-426); assay: Biacore SPR
T1 sequence (looked up): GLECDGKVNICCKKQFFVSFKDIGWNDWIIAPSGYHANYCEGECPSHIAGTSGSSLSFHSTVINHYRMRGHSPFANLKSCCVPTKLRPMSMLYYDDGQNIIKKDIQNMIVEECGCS
Protocol: (§1) Ligands were injected and allowed to flow over the captured receptor protein.

[2] = target: T2, GDF11 (UniProt O95390 299-407); assay: Biacore SPR
T2 construct: also called BMP11
T2 sequence (looked up): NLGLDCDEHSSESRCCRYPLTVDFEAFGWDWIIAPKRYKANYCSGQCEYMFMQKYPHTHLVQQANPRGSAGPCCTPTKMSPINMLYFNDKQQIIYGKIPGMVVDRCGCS
Protocol: as §1

[3] = target: T3, GDF3 (UniProt Q9NR23 251-364); assay: Biacore SPR
T3 sequence (looked up): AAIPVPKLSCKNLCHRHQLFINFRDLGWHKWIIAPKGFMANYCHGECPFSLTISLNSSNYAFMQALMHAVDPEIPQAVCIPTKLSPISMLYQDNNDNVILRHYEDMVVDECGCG
Protocol: as §1

[4] = target: T4, GDF8 (UniProt O14793 267-375); assay: Biacore SPR
T4 construct: also called myostatin
T4 sequence (looked up): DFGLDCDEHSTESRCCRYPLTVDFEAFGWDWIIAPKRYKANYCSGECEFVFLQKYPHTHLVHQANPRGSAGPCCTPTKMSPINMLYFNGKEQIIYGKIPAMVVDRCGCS
Protocol: as §1

[5] = target: T5, activin B (UniProt P09529 293-407); assay: Biacore SPR
T5 sequence (looked up): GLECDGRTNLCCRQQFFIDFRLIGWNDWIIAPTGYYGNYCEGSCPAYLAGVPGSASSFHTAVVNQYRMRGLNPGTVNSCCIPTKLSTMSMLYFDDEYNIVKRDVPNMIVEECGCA
Protocol: as §1

[6] = target: T6, BMP6 (UniProt P22004 382-513, limits assumed); assay: Biacore SPR
T6 sequence (looked up): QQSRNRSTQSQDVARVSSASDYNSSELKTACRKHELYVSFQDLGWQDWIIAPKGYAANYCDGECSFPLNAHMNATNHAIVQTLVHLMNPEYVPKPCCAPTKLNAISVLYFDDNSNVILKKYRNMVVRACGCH
Protocol: as §1

[7] = target: T7, BMP10 (UniProt O95393 317-424); assay: Biacore SPR
T7 sequence (looked up): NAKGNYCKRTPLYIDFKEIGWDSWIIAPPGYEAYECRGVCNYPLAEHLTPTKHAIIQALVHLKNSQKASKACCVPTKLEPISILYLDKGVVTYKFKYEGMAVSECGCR
Protocol: as §1

[8] = target: T8, BMP9 (UniProt Q9UK05 320-429); assay: Biacore SPR; kinetics indeterminate (transient)
T8 construct: also called GDF2
T8 sequence (looked up): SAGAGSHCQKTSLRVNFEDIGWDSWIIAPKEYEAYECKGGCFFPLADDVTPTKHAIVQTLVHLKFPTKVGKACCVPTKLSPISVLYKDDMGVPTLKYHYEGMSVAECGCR
Protocol: as §1

[9] = target: T1, activin A; assay: Biacore SPR; remark: listed apart in the source
Protocol: as §1

[10] = target: T9, BMP15 (UniProt O95972 268-392); assay: Biacore SPR
T9 construct: also called GDF9b
T9 sequence (looked up): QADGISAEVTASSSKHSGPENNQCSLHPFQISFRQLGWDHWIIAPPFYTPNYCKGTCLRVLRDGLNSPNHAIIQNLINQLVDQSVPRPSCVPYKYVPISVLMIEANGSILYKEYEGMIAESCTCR
Protocol: as §1

[11] = target: T5, activin B; assay: Biacore SPR; remark: listed apart in the source
Protocol: as §1

[12] = target: T10, activin AB (UniProt P08476 311-426; P09529 293-407); assay: Biacore SPR
T10 sequence (looked up) 1: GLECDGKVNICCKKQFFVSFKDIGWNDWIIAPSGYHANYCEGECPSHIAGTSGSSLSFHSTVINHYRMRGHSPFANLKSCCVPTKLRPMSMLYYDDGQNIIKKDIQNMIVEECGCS
T10 sequence (looked up) 2: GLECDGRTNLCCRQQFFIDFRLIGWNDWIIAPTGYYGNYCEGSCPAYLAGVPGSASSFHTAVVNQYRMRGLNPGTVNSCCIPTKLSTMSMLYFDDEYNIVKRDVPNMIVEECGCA
Protocol: as §1

[13] = target: T7, BMP10; assay: Biacore SPR; remark: listed apart in the source
Protocol: as §1

B1: ActRIIB-Fc:ALK4-Fc heterodimer (Fc fusion)
chain 1: GRGEAETRECIYYNANWELERTNQSGLERCEGEQDKRLHCYASWRNSSGTIELVKKGCWLDDFNCYDRQECVATEENPQVYFCCCEGNFCNERFTHLPEAGGPEVTYEPPPTAPTGGGTHTCPPCPAPELLGGPSVFLFPPKPKDTLMISRTPEVTCVVVDVSHEDPEVKFNWYVDGVEVHNAKTKPREEQYNSTYRVVSVLTVLHQDWLNGKEYKCKVSNKALPAPIEKTISKAKGQPREPQVYTLPPSRKEMTKNQVSLTCLVKGFYPSDIAVEWESNGQPENNYKTTPPVLKSDGSFFLYSKLTVDKSRWQQGNVFSCSVMHEALHNHYTQKSLSLSPGK
chain 2: SGPRGVQALLCACTSCLQANYTCETDGACMVSIFNLDGMEHHVRTCIPKVELVPAGKPFYCLSSEDLRNTHCCYTDYCNRIDLRVPSGHLKEPEHPSMWGPVETGGGTHTCPPCPAPELLGGPSVFLFPPKPKDTLMISRTPEVTCVVVDVSHEDPEVKFNWYVDGVEVHNAKTKPREEQYNSTYRVVSVLTVLHQDWLNGKEYKCKVSNKALPAPIEKTISKAKGQPREPQVYTLPPSREEMTKNQVSLTCLVKGFYPSDIAVEWESNGQPENNYDTTPPVLDSDGSFFLYSDLTVDKSRWQQGNVFSCSVMHEALHNHYTQKSLSLSPG
notes: C-terminal Lys optional; also called ActRIIB-Fc:ALK4-Fc heterodimeric complex; ActRIIB-Fc:ALK4-Fc heteromeric complex
Kd [1]: 0.012 nM | koff [1]: 0.00015 s⁻¹ | kon [1]: 1.3e+07 M⁻¹ s⁻¹ | Kd [2]: 0.003 nM | koff [2]: 0.00011 s⁻¹ | kon [2]: 3.8e+07 M⁻¹ s⁻¹ | Kd [3]: 4.9 nM | koff [3]: 0.017 s⁻¹ | kon [3]: 3.4e+06 M⁻¹ s⁻¹ | Kd [4]: 0.55 nM | koff [4]: 0.00021 s⁻¹ | kon [4]: 390000 M⁻¹ s⁻¹ | Kd [5]: 0.006 nM | koff [5]: 4e-05 s⁻¹ | kon [5]: 7.1e+06 M⁻¹ s⁻¹ | Kd [6]: 2.7 nM | koff [6]: 0.0055 s⁻¹ | kon [6]: 2e+06 M⁻¹ s⁻¹ | Kd [7]: 0.074 nM | koff [7]: 0.0041 s⁻¹ | kon [7]: 5.6e+07 M⁻¹ s⁻¹ | Kd [8]: 3.4 nM

B2: BMPRII-Fc:ALK4-Fc heterodimer (Fc fusion)
chain 1: SQNQERLCAFKDPYQQDLGIGESRISHENGTILCSKGSTCYGLWEKSKGDINLVKQGCWSHIGDPQECHYEECVVTTTPPSIQNGTYRFCCCSTDLCNVNFTENFPPPDTTPLSPPHSFNRDETGGGTHTCPPCPAPELLGGPSVFLFPPKPKDTLMISRTPEVTCVVVDVSHEDPEVKFNWYVDGVEVHNAKTKPREEQYNSTYRVVSVLTVLHQDWLNGKEYKCKVSNKALPAPIEKTISKAKGQPREPQVYTLPPSRKEMTKNQVSLTCLVKGFYPSDIAVEWESNGQPENNYKTTPPVLKSDGSFFLYSKLTVDKSRWQQGNVFSCSVMHEALHNHYTQKSLSLSPGK
chain 2: SGPRGVQALLCACTSCLQANYTCETDGACMVSIFNLDGMEHHVRTCIPKVELVPAGKPFYCLSSEDLRNTHCCYTDYCNRIDLRVPSGHLKEPEHPSMWGPVETGGGTHTCPPCPAPELLGGPSVFLFPPKPKDTLMISRTPEVTCVVVDVSHEDPEVKFNWYVDGVEVHNAKTKPREEQYNSTYRVVSVLTVLHQDWLNGKEYKCKVSNKALPAPIEKTISKAKGQPREPQVYTLPPSREEMTKNQVSLTCLVKGFYPSDIAVEWESNGQPENNYDTTPPVLDSDGSFFLYSDLTVDKSRWQQGNVFSCSVMHEALHNHYTQKSLSLSPG
notes: C-terminal Lys optional; also called BMPRII-Fc:ALK4-Fc heterodimeric complex
Kd [8]: > 140 nM | Kd [9]: 1.1 nM | koff [9]: 0.0022 s⁻¹ | kon [9]: 2e+06 M⁻¹ s⁻¹ | Kd [10]: 1.7 nM | koff [10]: 0.048 s⁻¹ | kon [10]: 2.8e+07 M⁻¹ s⁻¹ | Kd [11]: 1.7 nM | koff [11]: 0.0026 s⁻¹ | kon [11]: 1.6e+06 M⁻¹ s⁻¹ | Kd [12]: 0.14 nM | koff [12]: 0.0005 s⁻¹ | kon [12]: 3.6e+06 M⁻¹ s⁻¹ | Kd [13]: 2.2 nM | koff [13]: 0.0018 s⁻¹ | kon [13]: 800000 M⁻¹ s⁻¹
